What all share (assay): fluorescence anisotropy
A general note: Polarisation of emitted light reports the rotation of a fluorescent probe.

Data set [1] addresses Gal4LOV(SK22) C450V (/ Avena sativa (chimera)) (UniProt P04386). To be noted: dark; 20 mM HEPES pH 7.5, 50 mM NaCl, 50 ug/mL BSA, 5% Ficoll 400; 2 nM DNA; temperature not stated.
Data set [2] concerns the target Gal4LOV(SK22) (Gal4 DBD with AsLOV2 inserted between Ser22 and Lys23, no VP64) (/ Avena sativa (chimera)) (UniProt P04386). To be noted: 20 mM HEPES pH 7.5, 50 mM NaCl, 50 ug/mL BSA, 5% Ficoll 400, 2 nM DNA, temperature not stated.
Data set [3] deals with Gal4LOV(SK22) V416L (/ Avena sativa (chimera)) (UniProt P04386). To be noted: 20 mM HEPES pH 7.5, 50 mM NaCl, 50 ug/mL BSA, 5% Ficoll 400; 2 nM DNA; temperature not stated.
The target in data set [4] is Gal4LOV(SK22) I532E/A536E (/ Avena sativa (chimera)) (UniProt P04386). To be noted: dark; 20 mM HEPES pH 7.5, 50 mM NaCl, 50 ug/mL BSA, 5% Ficoll 400; 2 nM DNA; temperature not stated.

One sequence from paper PMC10238501 can be followed below.

“And” between values parts separate entries of the source, which are not always exact repeats. Equal entries are not always repeated.

Regarding “TCTTCGGAGGGCTGTCACCCGAATATA (double strand) [1xUAS 27-bp DNA]”, the Kd in data set [1] was 8.8 nM; in data set [2], 4.2 nM; in data set [2] (dark), 6.4 nM; in data set [3] it was 8.6 nM and 16.6 nM; in data set [4] it was 13.4 nM.

For orientation: Kd means the concentration at which binding is half-saturated.
